Paper PMC314469, “Protein Interaction Networks by Proteome Peptide Scanning” (PLoS Biology, 2004)

T1: amphyphisin SH3 (AMPH_HUMAN), P49418
T1 chain: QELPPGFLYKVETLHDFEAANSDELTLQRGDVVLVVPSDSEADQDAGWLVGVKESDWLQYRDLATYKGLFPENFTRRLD


Legend:
[1] = biological target: endophilin SH3 (SH3G2_HUMAN), Q99962; experiment: SPOT array
[2] = biological target: T1, amphyphisin SH3 (AMPH_HUMAN), P49418; experiment: SPOT array

Binder | normalised SPOT signal, Boehringer light units (BLU); mean over the file's lines of this peptide [1] | normalised SPOT signal, Boehringer light units (BLU); mean over the file's lines of this peptide [2]
EHREPKRPEIIFLP [O43196 121-134] | 43.4 | 31.2
AALLFLRPPRVRGH [Q9NPN2 39-52] | 82.4 | 8020
EHRPLKRPRPRLGP [Q9UHV6 43-56] | 82 | 22
EHRPPEKPPRPPRP [Q8TEL4 107-121] | 9880 | 9830
EIAKLKRPTALKKV [Q93073 574-587] | 85.5 | 16.3
EIGFPGRPGRPGMN [P39060 984-997] | 108 | 139
EIMSPRKPPLFLTK [BAC04837 210-224] | 1680 | 136
AGNLPSRPPPLSSP [Q96LQ5 87-101] | 1080 | 59.7
EIPKPIKPPTYQVL [O60504 440-454] | 62.9 | 52.6
EKDHIRRPMNAFMI [Q9UEG5 39-52] | 67 | 30.2
EKGELGRPGRKGRP [Q9Y215 121-134] | 164 | 103
EKGQPSRPTKSKDA [Q9NSC3 29-42] | 143 | 82.2
EKIPFERPFRRPNA [Q9NVW8 327-340] | 123 | 948
EKPILDRPTRISQP [Q9Y403 100-113] | 0.6 | 57.1
EKPKLRRPSDRSNG [Q9H9V7 590-603] | 80.5 | 10.1
ELAHLVRPQKSRPY [P42858 194-207] | 86.2 | 166

Binder | normalised SPOT signal, Boehringer light units (BLU); mean over the file's lines of this peptide [1] | normalised SPOT signal, Boehringer light units (BLU); mean over the file's lines of this peptide [2]
ELEQLRRPPGTAER [Q9NZQ6 1526-1539] | 126 | 15.8
ELHVPIRPPRPSSP [O00485 108-122] | 3980 | 12300
AGPGPARPPVPPRP [P52849 60-74] | 3370 | 5580
ELPRPRRPPLQWRY [Q9NSY0 103-117] | 5930 | 1080
ELPRPRRPPPEDEE [P22460 83-97] | 36.9 | 40
ELTIIERPVRRSLK [Q9HCF0 45-58] | 61.6 | 700
ELYLLFRPFKGYEG [Q93062 39-52] | 178 | 129
ELYPISRPLKKTWE [Q15047 309-322] | -0 | -0
EMEPPPKPPRSSSA [Q9H7I0 90-104] | 298 | 4690
EMPHLARPIKVESP [Q08050 469-482] | 158 | 145
EMTPPPKPPRLYLP [Q9UM03 505-519] | 601 | 1820
ENDNIERPVRRRHS [Q9NR92 11-24] | 59.3 | 88.7
ENESPLKPPGISMD [Q92610 35-49] | 22.2 | 50.4
AGPRLPRPPREGST [Q9H224 58-71] | 1130 | 2230
EPEEPKRPVPAERG [Q16584 619-632] | 40.1 | 104
